We go through four sequences from the supplement of paper PMC5998384.

In data set [1] the test system is HeLa Kyoto. As to the kind of experiment: thermal stability score vs G1/S (z-score of summed log2 fold changes over temperatures); higher = more thermally stable than in G1/S.
Data set [2] deals with HeLa Kyoto. Kind of data set: solubility change mitosis vs G1/S (difference of NP-40 vs SDS log2 ratios) (log2 ratio difference); higher = more soluble in mitosis.
Data set [3] relates to HeLa Kyoto. Kind of data set: solubility in G1/S (NP-40 vs SDS abundance) (log2 ratio); higher = more soluble. Conditions: cell cycle stage: G1/S.
The subject of data set [4] is HeLa Kyoto. As to the kind of experiment: melting temperature (median over replicates), in situ; higher = more thermally stable.
Setting [5] is: cell cycle stage: early G1 (4.5 h after nocodazole release).
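Wherever melting temperature (median over replicates), in situ is given: HeLa Kyoto cells synchronized by double thymidine or nocodazole block, proteins quantified by TMT10plex mass spectrometry, three independent biological replicates.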
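Wherever solubility change mitosis vs G1/S (difference of NP-40 vs SDS log2 ratios) is given: synchronized HeLa Kyoto cells (double thymidine block for G1/S, nocodazole release for mitosis), protein amounts in NP-40 versus SDS lysates quantified by mass spectrometry, three biological replicates.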
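Wherever solubility in G1/S (NP-40 vs SDS abundance) is given: HeLa Kyoto cells arrested at G1/S by double thymidine block, proteins quantified by TMT10plex mass spectrometry in mild NP-40 versus SDS extracts, three biological replicates.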
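Wherever thermal stability score vs G1/S (z-score of summed log2 fold changes over temperatures) is given: synchronized HeLa Kyoto cells, proteins quantified by TMT10plex mass spectrometry, three biological replicates, mitosis taken 0.5 h after nocodazole release, G1/S directly after double thymidine block.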

Turning to “MRLGSGTFATCCVAIEVLGIAVFLRGFFPAPVRSSARAEHGAEPPAPEPSAGASSNWTTLPPPLFSKVVIVLIDALRDDFVFGSKGVKFMPYTTYLVEKGASHSFVAEAKPPTVTMPRIKALMTGSLPGFVDVIRNLNSPALLEDSVIRQAKAAGKRIVFYGDETWVKLFPKHFVEYDGTTSFFVSDYTEVDNNVTRHLDKVLKRGDWDILILHYLGLDHIGHISGPNSPLIGQKLSEMDSVLMKIHTSLQSKERETPLPNLLVLCGDHGMSETGSHGASSTEEVNTPLILISSAFERKPGDIRHPKHVQQTDVAATLAIALGLPIPKDSVGSLLFPVVEGRPMREQLRFLHLNTVQLSKLLQENVPSYEKDPGFEQFKMSERLHGNWIRLYLEEKHSEVLFNLGSKVLRQYLDALKTLSLSLSAQVAQYDIYSMMVGTVVVLEVLTLLLLSVPQALRRKAELEVPLSSPGFSLLFYLVILVLSAVHVIVCTSAESSCYFCGLSWLAAGGVMVLASALLCVIVSVLTNVLVGGNTPRKNPMHPSSRWSELDLLILLGTAGHVLSLGASSFVEEEHQTWYFLVNTLCLALSQETYRNYFLGDDGEPPCGLCVEQGHDGATAAWQDGPGCDVLERDKGHGSPSTSEVLRGREKWMVLASPWLILACCRLLRSLNQTGVQWAHRPDLGHWLTSSDHKAELSVLAALSLLVVFVLVQRGCSPVSKAALALGLLGVYCYRAAIGSVRFPWRPDSKDISKGIIEARFVYVFVLGILFTGTKDLLKSQVIAADFKLKTVGLWEIYSGLVLLAALLFRPHNLPVLAFSLLIQTLMTKFIWKPLRHDAAEITVMHYWFGQAFFYFQGNSNNIATVDISAGFVGLDTYVEIPAVLLTAFGTYAGPVLWASHLVHFLSSETRSGSALSHACFCYALICSIPVFTYIVLVTSLRYHLFIWSVFSPKLLYEGMHLLITAAVCVFFTAMDQTRLTQS [PIGG]”, the thermal stability score in the data set on HeLa Kyoto [1] (setting [5]) was 0.623; in the data set on HeLa Kyoto [1] (cell cycle stage: mitosis), -0.407. In addition, the “solubility change mitosis (log2)” value with HeLa Kyoto [2] was determined as 0.00219. The “solubility in G1/S (log2)” value in the data set with HeLa Kyoto [3] is -0.239. In addition, the melting temperature in the data set with HeLa Kyoto [4] (cell cycle stage: G1/S) stood at 54.1 °C; in the data set with HeLa Kyoto [4] (cell cycle stage: mitosis) it was 53.8 °C.
“MRLLPLAPGRLRRGSPRHLPSCSPALLLLVLGGCLGVFGVAAGTRRPNVVLLLTDDQDEVLGGMTPLKKTKALIGEMGMTFSSAYVPSALCCPSRASILTGKYPHNHHVVNNTLEGNCSSKSWQKIQEPNTFPAILRSMCGYQTFFAGKYLNEYGAPDAGGLEHVPLGWSYWYALEKNSKYYNYTLSINGKARKHGENYSVDYLTDVLANVSLDFLDYKSNFEPFFMMIATPAPHSPWTAAPQYQKAFQNVFAPRNKNFNIHGTNKHWLIRQAKTPMTNSSIQFLDNAFRKRWQTLLSVDDLVEKLVKRLEFTGELNNTYIFYTSDNGYHTGQFSLPIDKRQLYEFDIKVPLLVRGPGIKPNQTSKMLVANIDLGPTILDIAGYDLNKTQMDGMSLLPILRGASNLTWRSDVLVEYQGEGRNVTDPTCPSLSPGVSQCFPDCVCEDAYNNTYACVRTMSALWNLQYCEFDDQEVFVEVYNLTADPDQITNIAKTIDPELLGKMNYRLMMLQSCSGPTCRTPGVFDPGYRFDPRLMFSNRGSVRTRRFSKHLL [GNS]”: the thermal stability score is -1.62 with HeLa Kyoto [1] (setting [5]) and -1.58 in the data set on HeLa Kyoto [1] (cell cycle stage: mitosis). Also, the “solubility change mitosis (log2)” value with HeLa Kyoto [2] was determined as 0.0867. Moreover, the “solubility in G1/S (log2)” value in the data set on HeLa Kyoto [3] came out at 0.471. Besides, the melting temperature in the data set with HeLa Kyoto [4] (cell cycle stage: G1/S) was found to be 57.1 °C; with HeLa Kyoto [4] (cell cycle stage: mitosis), 57.6 °C.
Consider “MRLPDLRPWTSLLLVDAALLWLLQGPLGTLLPQGLPGLWLEGTLRLGGLWGLLKLRGLLGFVGTLLLPLCLATPLTVSLRALVAGASRAPPARVASAPWSWLLVGYGAAGLSWSLWAVLSPPGAQEKEQDQVNNKVLMWRLLKLSRPDLPLLVAAFFFLVLAVLGETLIPHYSGRVIDILGGDFDPHAFASAIFFMCLFSFGSSLSAGCRGGCFTYTMSRINLRIREQLFSSLLRQDLGFFQETKTGELNSRLSSDTTLMSNWLPLNANVLLRSLVKVVGLYGFMLSISPRLTLLSLLHMPFTIAAEKVYNTRHQEVLREIQDAVARAGQVVREAVGGLQTVRSFGAEEHEVCRYKEALEQCRQLYWRRDLERALYLLVRRVLHLGVQMLMLSCGLQQMQDGELTQGSLLSFMIYQESVGSYVQTLVYIYGDMLSNVGAAEKVFSYMDRQPNLPSPGTLAPTTLQGVVKFQDVSFAYPNRPDRPVLKGLTFTLRPGEVTALVGPNGSGKSTVAALLQNLYQPTGGQVLLDEKPISQYEHCYLHSQVVSVGQEPVLFSGSVRNNIAYGLQSCEDDKVMAAAQAAHADDFIQEMEHGIYTDVGEKGSQLAAGQKQRLAIARALVRDPRVLILDEATSALDVQCEQALQDWNSRGDRTVLVIAHRLQTVQRAHQILVLQEGKLQKLAQL [TAP2]”, for which the thermal stability score in the data set with HeLa Kyoto [1] (setting [5]) came to 0.266; with HeLa Kyoto [1] (cell cycle stage: mitosis), 0.39. Further, the “solubility change mitosis (log2)” value with HeLa Kyoto [2] is -0.195. In addition, in the data set with HeLa Kyoto [3], the “solubility in G1/S (log2)” value was -0.259. The melting temperature was 49.8 °C in the data set with HeLa Kyoto [4] (cell cycle stage: G1/S) and 50.4 °C in the data set on HeLa Kyoto [4] (cell cycle stage: mitosis).
In the case of “MRLPRRAALGLLPLLLLLPPAPEAAKKPTPCHRCRGLVDKFNQGMVDTAKKNFGGGNTAWEEKTLSKYESSEIRLLEILEGLCESSDFECNQMLEAQEEHLEAWWLQLKSEYPDLFEWFCVKTLKVCCSPGTYGPDCLACQGGSQRPCSGNGHCSGDGSRQGDGSCRCHMGYQGPLCTDCMDGYFSSLRNETHSICTACDESCKTCSGLTNRDCGECEVGWVLDEGACVDVDECAAEPPPCSAAQFCKNANGSYTCEECDSSCVGCTGEGPGNCKECISGYAREHGQCADVDECSLAEKTCVRKNENCYNTPGSYVCVCPDGFEETEDACVPPAEAEATEGESPTQLPSREDL [CRELD2]”, the results for the thermal stability score in the data set on HeLa Kyoto [1] (setting [5]) and with HeLa Kyoto [1] (cell cycle stage: mitosis) were -5.44 and -1.73, respectively. For the same sequence, the “solubility change mitosis (log2)” value in the data set on HeLa Kyoto [2] is -0.0918. For the same sequence, the “solubility in G1/S (log2)” value with HeLa Kyoto [3] was found to be 0.092. In addition, the melting temperature in the data set on HeLa Kyoto [4] (cell cycle stage: G1/S) was 57.2 °C; in the data set with HeLa Kyoto [4] (cell cycle stage: mitosis), 59.6 °C.
